94 variants from the supplement of paper PMC10567573 can be followed below.

First the molecules themselves.
B1: DVL3 (parent)
chain: FCADNPSELPPPMERTGGIGDSRP
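Further: lentivirally expressed fusions sorted by FACS into six bins by GFP to DsRed ratio, PSI derived from sequencing read proportions per bin multiplied by bin number.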

In the data set the parent is B1. In words: protein stability index of a GFP-peptide fusion (GPS, HEK-293T) (PSI 1-6); higher = more stable. The following applies: c terminus: a fixed tail appended.
Turning to FCADNPSCLPPPMERTGGIGDSRP [E8C], the protein stability index was determined as 4.06.

As to FCADNPSALPPPMERTGGIGDSRP [E8A], the protein stability index came to 4.36.

FCADNPSFLPPPMERTGGIGDSRP [E8F]: the protein stability index amounted to 2.6. The value for FCADNPSGLPPPMERTGGIGDSRP [E8G] was 4.37; that for FCADNPSDLPPPMERTGGIGDSRP [E8D] was 4.39; that for FCADNPSKLPPPMERTGGIGDSRP [E8K] was 3.47.

With FCADNPSHLPPPMERTGGIGDSRP [E8H], the protein stability index stood at 3.95. The value for FCADNPSILPPPMERTGGIGDSRP [E8I] was 3.88. As for FVADNPSELPPPMERTGGIGDSRP [C2V], the figure is 3.27; as for FIADNPSELPPPMERTGGIGDSRP [C2I], 4.71; as for FMADNPSELPPPMERTGGIGDSRP [C2M], 4.71. As for FGADNPSELPPPMERTGGIGDSRP [C2G], the figure is 4.83; as for FPADNPSELPPPMERTGGIGDSRP [C2P], 4.73; as for FAADNPSELPPPMERTGGIGDSRP [C2A], 4.77. Turning to FYADNPSELPPPMERTGGIGDSRP [C2Y], the protein stability index worked out at 4.75.

For FRADNPSELPPPMERTGGIGDSRP [C2R], the protein stability index stood at 4.58. As for FSADNPSELPPPMERTGGIGDSRP [C2S], the figure is 5; as for FDADNPSELPPPMERTGGIGDSRP [C2D], 5.46; as for FFADNPSELPPPMERTGGIGDSRP [C2F], 4.31. As for FNADNPSELPPPMERTGGIGDSRP [C2N], the figure is 4.43; as for FKADNPSELPPPMERTGGIGDSRP [C2K], 4.68. The value for FTADNPSELPPPMERTGGIGDSRP [C2T] was 5.06; that for FWADNPSELPPPMERTGGIGDSRP [C2W] was 3.44.

In the case of FHADNPSELPPPMERTGGIGDSRP [C2H], the protein stability index came to 4.36. As to FLADNPSELPPPMERTGGIGDSRP [C2L], the protein stability index is 5.

FCADNRSELPPPMERTGGIGDSRP [P6R]: the protein stability index is 4.19.

In the case of FCADNHSELPPPMERTGGIGDSRP [P6H], the protein stability index worked out at 4.08. As for FCADNGSELPPPMERTGGIGDSRP [P6G], the figure is 3.85; as for FCADNVSELPPPMERTGGIGDSRP [P6V], 4.27; as for FCADNLSELPPPMERTGGIGDSRP [P6L], 3.88. The value for FCADNYSELPPPMERTGGIGDSRP [P6Y] was 4.27; that for FCADNNSELPPPMERTGGIGDSRP [P6N] was 4.61. The value for FCADNQSELPPPMERTGGIGDSRP [P6Q] was 4.95; that for FCADNFSELPPPMERTGGIGDSRP [P6F] was 4.38. On to FCADNWSELPPPMERTGGIGDSRP [P6W], for which the protein stability index amounted to 2.33. Take FCADNASELPPPMERTGGIGDSRP [P6A]: the protein stability index came to 4.71. As for FCADNKSELPPPMERTGGIGDSRP [P6K], the figure is 4.33; as for FCADNISELPPPMERTGGIGDSRP [P6I], 3.73; as for FCADNTSELPPPMERTGGIGDSRP [P6T], 3.99. As for FCADNMSELPPPMERTGGIGDSRP [P6M], the figure is 3.8; as for FCADNSSELPPPMERTGGIGDSRP [P6S], 3.95; as for FCADNDSELPPPMERTGGIGDSRP [P6D], 4.03. FCADNESELPPPMERTGGIGDSRP [P6E]: the protein stability index worked out at 4.64. The value for CCADNPSELPPPMERTGGIGDSRP [F1C] was 3.99; that for MCADNPSELPPPMERTGGIGDSRP [F1M] was 3.45. The value for NCADNPSELPPPMERTGGIGDSRP [F1N] was 5.58; that for TCADNPSELPPPMERTGGIGDSRP [F1T] was 4.99. For the variant LCADNPSELPPPMERTGGIGDSRP [F1L], the protein stability index is 4.63.

Take RCADNPSELPPPMERTGGIGDSRP [F1R]: the protein stability index was found to be 4.68. As for GCADNPSELPPPMERTGGIGDSRP [F1G], the figure is 5.33; as for ECADNPSELPPPMERTGGIGDSRP [F1E], 5.12; as for ICADNPSELPPPMERTGGIGDSRP [F1I], 5.05. As for QCADNPSELPPPMERTGGIGDSRP [F1Q], the figure is 4.83; as for PCADNPSELPPPMERTGGIGDSRP [F1P], 5.44. As for WCADNPSELPPPMERTGGIGDSRP [F1W], the figure is 4.26.

In the case of YCADNPSELPPPMERTGGIGDSRP [F1Y], the protein stability index amounted to 4.89.

Consider KCADNPSELPPPMERTGGIGDSRP [F1K], for which the protein stability index was 4.86. Consider ACADNPSELPPPMERTGGIGDSRP [F1A], for which the protein stability index stood at 5.49. As to SCADNPSELPPPMERTGGIGDSRP [F1S], the protein stability index turned out to be 4.94. Turning to HCADNPSELPPPMERTGGIGDSRP [F1H], the protein stability index came out at 5.25. The value for VCADNPSELPPPMERTGGIGDSRP [F1V] was 5.18; that for DCADNPSELPPPMERTGGIGDSRP [F1D] was 5.43; that for FCPDNPSELPPPMERTGGIGDSRP [A3P] was 4.17.

With FCYDNPSELPPPMERTGGIGDSRP [A3Y], the protein stability index turned out to be 4.49. As for FCWDNPSELPPPMERTGGIGDSRP [A3W], the figure is 3.64. As for FCSDNPSELPPPMERTGGIGDSRP [A3S], the figure is 4.81. As for FCEDNPSELPPPMERTGGIGDSRP [A3E], the figure is 5.23. For the variant FCHDNPSELPPPMERTGGIGDSRP [A3H], the protein stability index turned out to be 4.37.

Take FCFDNPSELPPPMERTGGIGDSRP [A3F]: the protein stability index worked out at 3.56. As for FCVDNPSELPPPMERTGGIGDSRP [A3V], the figure is 4.78; as for FCIDNPSELPPPMERTGGIGDSRP [A3I], 4.25. The value for FCCDNPSELPPPMERTGGIGDSRP [A3C] was 4.13.

Turning to FCDDNPSELPPPMERTGGIGDSRP [A3D], the protein stability index was found to be 5.11. The value for FCKDNPSELPPPMERTGGIGDSRP [A3K] was 4.34. The value for FCMDNPSELPPPMERTGGIGDSRP [A3M] was 4.48; that for FCQDNPSELPPPMERTGGIGDSRP [A3Q] was 3.45; that for FCNDNPSELPPPMERTGGIGDSRP [A3N] was 4.79. The value for FCTDNPSELPPPMERTGGIGDSRP [A3T] was 4.29; that for FCADNPEELPPPMERTGGIGDSRP [S7E] was 5.11.

For FCADNPMELPPPMERTGGIGDSRP [S7M], the protein stability index came to 4.3. As for FCADNPLELPPPMERTGGIGDSRP [S7L], the figure is 4.57; as for FCADNPIELPPPMERTGGIGDSRP [S7I], 4.19; as for FCADNPVELPPPMERTGGIGDSRP [S7V], 4.14. As for FCADNPCELPPPMERTGGIGDSRP [S7C], the figure is 3.85; as for FCADNPTELPPPMERTGGIGDSRP [S7T], 4.22; as for FCADNPYELPPPMERTGGIGDSRP [S7Y], 3.81. The value for FCADNPAELPPPMERTGGIGDSRP [S7A] was 4.57; that for FCADNPDELPPPMERTGGIGDSRP [S7D] was 5.04. In the case of FCADNPRELPPPMERTGGIGDSRP [S7R], the protein stability index worked out at 3.58. As for FCADNPKELPPPMERTGGIGDSRP [S7K], the figure is 4.98; as for FCADNPFELPPPMERTGGIGDSRP [S7F], 4.24; as for FCADNPNELPPPMERTGGIGDSRP [S7N], 4.45. The value for FCADNPGELPPPMERTGGIGDSRP [S7G] was 4.01; that for FCALNPSELPPPMERTGGIGDSRP [D4L] was 3.83.
